Test results published in the supplement of paper PMC10065799, “High-throughput profiling of sequence recognition by tyrosine kinases and SH2 domains using bacterial peptide display” (eLife, 2023).

biological target: FGFR1 (UniProt P11362); test: phosphorylation enrichment, bacterial display (enrichment ratio); higher = better substrate or ligand; peptides without Tyr show the background
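Throughout, for SH2 binding enrichment of the phosphorylated peptide, bacterial display: peptide library displayed on the E. coli surface as eCPX fusions, selected cells deep-sequenced, score is each peptide's frequency after selection divided by its frequency in the input.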
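Throughout, for phosphorylation enrichment, bacterial display: 11-residue human phosphosite peptides and single-mutation variants displayed on the E. coli surface, counted by deep sequencing, each peptide's frequency after selection divided by its frequency in the unselected input library; frequency after pTyr selection over input frequency; kinase dosed for 20-30% of maximal phosphorylation in three min.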

Chain of FGFR1 (P11362 whole entry, looked up, the tested form may be a part): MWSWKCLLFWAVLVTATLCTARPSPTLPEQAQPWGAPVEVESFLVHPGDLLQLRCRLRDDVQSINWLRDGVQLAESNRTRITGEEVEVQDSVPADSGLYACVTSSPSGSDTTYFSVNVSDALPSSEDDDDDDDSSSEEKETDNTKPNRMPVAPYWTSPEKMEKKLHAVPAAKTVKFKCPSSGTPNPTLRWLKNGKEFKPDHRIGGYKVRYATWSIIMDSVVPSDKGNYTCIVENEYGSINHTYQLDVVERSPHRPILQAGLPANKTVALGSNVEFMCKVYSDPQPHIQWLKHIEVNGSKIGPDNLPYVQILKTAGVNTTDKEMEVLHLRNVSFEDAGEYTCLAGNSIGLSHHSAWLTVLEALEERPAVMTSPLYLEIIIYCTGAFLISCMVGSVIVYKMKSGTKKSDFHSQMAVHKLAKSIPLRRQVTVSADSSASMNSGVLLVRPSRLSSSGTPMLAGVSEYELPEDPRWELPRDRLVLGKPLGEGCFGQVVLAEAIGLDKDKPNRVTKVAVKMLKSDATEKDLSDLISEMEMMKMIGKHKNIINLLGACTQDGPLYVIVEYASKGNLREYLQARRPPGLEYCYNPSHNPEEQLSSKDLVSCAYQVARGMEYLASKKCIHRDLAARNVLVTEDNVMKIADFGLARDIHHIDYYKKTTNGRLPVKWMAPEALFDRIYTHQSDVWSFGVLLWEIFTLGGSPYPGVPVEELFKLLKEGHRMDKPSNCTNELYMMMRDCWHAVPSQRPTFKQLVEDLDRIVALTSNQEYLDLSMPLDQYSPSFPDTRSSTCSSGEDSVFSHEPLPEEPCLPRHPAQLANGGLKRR

Sequence | phosphorylation enrichment
QEEPEYWDQET [HLA-A_Y83_G80E] | 0.897
KILGRYYETSS [PAX2_Y72_G76S] | 0.435
HQIQSYTCEID [DES_Y331] | 0.822
PLDGEYFTRQI [TP53_Y327_L330R] | 0.387
LQLLGYRPVYS [CHST6_Y358] | 0.718
AAVDEYLEFRR [FAM221A_Y17_YF] | 0.601
LTRDIYKNDFF [ROS1_Y2110_A2106T_YF] | 1.05
DDDPEDRKFLE [UPF3B_Y160_Y160D] | 0.51
GRLVEYDIDEV [SMS_Y134] | 0.494
NPSFNYEIVNQ [DYNC1H1_Y3379_R3384Q_YF] | 0.763
LKETGYVVERP [BCLAF1_Y466] | 0.443
CTTNHYNYMCN [TP53_Y234_I232N] | 0.479
CEQELYSQLVF [WAS_Y102_W97C_YF] | 1.66
SVCPDYDLCSI [SQSTM1_Y148_V153I] | 0.709
PKEEPYQMQEK [SLC5A3_Y565] | 1
IGEGTYGVVYK [CDK2_Y15] | 0.551
LSCLAYSGKDA [FXN_Y205_S202C] | 0.495

Sequence | phosphorylation enrichment
NACGLYFKLHN [GATA2_Y376_YF] | 0.437
SQDSAYHSGIQ [FLG_Y3940] | 0.4
IVKAYYVRARA [AIPL1_Y268] | 0.466
FEREQYADRAR [RBM4_Y355_YF] | 0.426
GFEEAYSVFKK [PAFAH1B1_Y28_YF] | 0.423
DKITQYVEEVK [STX2_Y49] | 0.552
ARLEYCENEKK [IRS1_Y47_Y47C] | 0.786
YETVKYFNNER [ABCB7_Y345] | 1.95
QKNVSYVSTVS [TASOR_Y1043] | 0.405
HLNLTYRILSF [MMP23B_Y95_F91L] | 0.645
RSDEDYLYREE [POR_Y573] | 0.784
IEDPYYGNDFD [ACP1_Y133_S137F] | 1.6
IVLRSYPASDH [NID2_Y449_G453D] | 0.496
SVGVPYEPPEV [TP53_Y220_V217G] | 0.523
SKNYTYIWWLN [PSG4_Y271] | 0.589
KLIMEYLPYGS [JAK2_Y931] | 0.543

biological target: Grb2 SH2 (UniProt P62993); test: SH2 binding enrichment of the phosphorylated peptide, bacterial display (enrichment ratio); higher = better substrate or ligand; peptides without Tyr show the background

Sequence | SH2 binding enrichment
KILGRYYETSS [PAX2_Y72_G76S] | 0.89
HQIQSYTCEID [DES_Y331] | 0.951
LQLLGYRPVYS [CHST6_Y358] | 1.02
AAVDEYLEFRR [FAM221A_Y17_YF] | 0.926
LTRDIYKNDFF [ROS1_Y2110_A2106T_YF] | 1.48
DDDPEDRKFLE [UPF3B_Y160_Y160D] | 0.938
GRLVEYDIDEV [SMS_Y134] | 0.812
NPSFNYEIVNQ [DYNC1H1_Y3379_R3384Q_YF] | 0.78
LKETGYVVERP [BCLAF1_Y466] | 0.862
CTTNHYNYMCN [TP53_Y234_I232N] | 0.802
PKEEPYQMQEK [SLC5A3_Y565] | 0.78
IGEGTYGVVYK [CDK2_Y15] | 0.73
NACGLYFKLHN [GATA2_Y376_YF] | 0.899
IVKAYYVRARA [AIPL1_Y268] | 0.976
FEREQYADRAR [RBM4_Y355_YF] | 0.956
DKITQYVEEVK [STX2_Y49] | 0.918
ARLEYCENEKK [IRS1_Y47_Y47C] | 0.594
QKNVSYVSTVS [TASOR_Y1043] | 0.679
IEDPYYGNDFD [ACP1_Y133_S137F] | 0.863
SVGVPYEPPEV [TP53_Y220_V217G] | 0.718
SKNYTYIWWLN [PSG4_Y271] | 0.921
KLIMEYLPYGS [JAK2_Y931] | 0.845

The next lines start with the values.

SH2 binding enrichment | Sequence
0.798 | QEEPEYWDQET [HLA-A_Y83_G80E]
0.692 | PLDGEYFTRQI [TP53_Y327_L330R]
0.933 | CEQELYSQLVF [WAS_Y102_W97C_YF]
0.968 | SVCPDYDLCSI [SQSTM1_Y148_V153I]
0.719 | LSCLAYSGKDA [FXN_Y205_S202C]
0.899 | SQDSAYHSGIQ [FLG_Y3940]
1.03 | GFEEAYSVFKK [PAFAH1B1_Y28_YF]
0.868 | YETVKYFNNER [ABCB7_Y345]
1.03 | HLNLTYRILSF [MMP23B_Y95_F91L]
0.738 | RSDEDYLYREE [POR_Y573]
1.01 | IVLRSYPASDH [NID2_Y449_G453D]

biological target: SHP2-C SH2; test: as above

Sequence | SH2 binding enrichment
KILGRYYETSS [PAX2_Y72_G76S] | 0.726
HQIQSYTCEID [DES_Y331] | 0.786
LQLLGYRPVYS [CHST6_Y358] | 0.962
AAVDEYLEFRR [FAM221A_Y17_YF] | 0.496
LTRDIYKNDFF [ROS1_Y2110_A2106T_YF] | 0.731
DDDPEDRKFLE [UPF3B_Y160_Y160D] | 0.613
GRLVEYDIDEV [SMS_Y134] | 0.613
NPSFNYEIVNQ [DYNC1H1_Y3379_R3384Q_YF] | 0.579
LKETGYVVERP [BCLAF1_Y466] | 0.68
CTTNHYNYMCN [TP53_Y234_I232N] | 2.42
PKEEPYQMQEK [SLC5A3_Y565] | 0.614
IGEGTYGVVYK [CDK2_Y15] | 0.535
NACGLYFKLHN [GATA2_Y376_YF] | 0.686
IVKAYYVRARA [AIPL1_Y268] | 0.923
FEREQYADRAR [RBM4_Y355_YF] | 0.567
DKITQYVEEVK [STX2_Y49] | 0.752
ARLEYCENEKK [IRS1_Y47_Y47C] | 0.766
QKNVSYVSTVS [TASOR_Y1043] | 0.891
IEDPYYGNDFD [ACP1_Y133_S137F] | 0.617
SVGVPYEPPEV [TP53_Y220_V217G] | 0.861
SKNYTYIWWLN [PSG4_Y271] | 0.657
KLIMEYLPYGS [JAK2_Y931] | 0.742

The remaining lines, values ahead:

SH2 binding enrichment | Sequence
0.476 | QEEPEYWDQET [HLA-A_Y83_G80E]
0.836 | PLDGEYFTRQI [TP53_Y327_L330R]
0.553 | CEQELYSQLVF [WAS_Y102_W97C_YF]
0.733 | SVCPDYDLCSI [SQSTM1_Y148_V153I]
0.626 | LSCLAYSGKDA [FXN_Y205_S202C]
0.544 | SQDSAYHSGIQ [FLG_Y3940]
1.76 | GFEEAYSVFKK [PAFAH1B1_Y28_YF]
1.13 | YETVKYFNNER [ABCB7_Y345]
0.624 | HLNLTYRILSF [MMP23B_Y95_F91L]
0.748 | RSDEDYLYREE [POR_Y573]
0.793 | IVLRSYPASDH [NID2_Y449_G453D]

biological target: c-Src SH2; test: as above

Sequence | SH2 binding enrichment
KILGRYYETSS [PAX2_Y72_G76S] | 1.62
HQIQSYTCEID [DES_Y331] | 0.774
LQLLGYRPVYS [CHST6_Y358] | 0.783
AAVDEYLEFRR [FAM221A_Y17_YF] | 0.559
LTRDIYKNDFF [ROS1_Y2110_A2106T_YF] | 0.395
DDDPEDRKFLE [UPF3B_Y160_Y160D] | 0.579
GRLVEYDIDEV [SMS_Y134] | 0.845
NPSFNYEIVNQ [DYNC1H1_Y3379_R3384Q_YF] | 0.724
LKETGYVVERP [BCLAF1_Y466] | 0.501
CTTNHYNYMCN [TP53_Y234_I232N] | 11
PKEEPYQMQEK [SLC5A3_Y565] | 0.457
IGEGTYGVVYK [CDK2_Y15] | 0.507
NACGLYFKLHN [GATA2_Y376_YF] | 0.449
IVKAYYVRARA [AIPL1_Y268] | 0.521
FEREQYADRAR [RBM4_Y355_YF] | 0.536
DKITQYVEEVK [STX2_Y49] | 0.555
ARLEYCENEKK [IRS1_Y47_Y47C] | 0.49
QKNVSYVSTVS [TASOR_Y1043] | 0.26
IEDPYYGNDFD [ACP1_Y133_S137F] | 0.68
SVGVPYEPPEV [TP53_Y220_V217G] | 0.444
SKNYTYIWWLN [PSG4_Y271] | 0.444
KLIMEYLPYGS [JAK2_Y931] | 0.762

Other lines, results leading:

SH2 binding enrichment | Sequence
0.491 | QEEPEYWDQET [HLA-A_Y83_G80E]
0.675 | PLDGEYFTRQI [TP53_Y327_L330R]
0.515 | CEQELYSQLVF [WAS_Y102_W97C_YF]
0.692 | SVCPDYDLCSI [SQSTM1_Y148_V153I]
0.537 | LSCLAYSGKDA [FXN_Y205_S202C]
0.529 | SQDSAYHSGIQ [FLG_Y3940]
0.605 | GFEEAYSVFKK [PAFAH1B1_Y28_YF]
9.64 | YETVKYFNNER [ABCB7_Y345]
0.474 | HLNLTYRILSF [MMP23B_Y95_F91L]
0.435 | RSDEDYLYREE [POR_Y573]
0.467 | IVLRSYPASDH [NID2_Y449_G453D]
